Test results: patent US20240182563A1 (GENOME, published 2024)

Biological target: T1, human CNTN4-10xHis (human, UniProt Q8IWV2 19-1000)
T1 sequence: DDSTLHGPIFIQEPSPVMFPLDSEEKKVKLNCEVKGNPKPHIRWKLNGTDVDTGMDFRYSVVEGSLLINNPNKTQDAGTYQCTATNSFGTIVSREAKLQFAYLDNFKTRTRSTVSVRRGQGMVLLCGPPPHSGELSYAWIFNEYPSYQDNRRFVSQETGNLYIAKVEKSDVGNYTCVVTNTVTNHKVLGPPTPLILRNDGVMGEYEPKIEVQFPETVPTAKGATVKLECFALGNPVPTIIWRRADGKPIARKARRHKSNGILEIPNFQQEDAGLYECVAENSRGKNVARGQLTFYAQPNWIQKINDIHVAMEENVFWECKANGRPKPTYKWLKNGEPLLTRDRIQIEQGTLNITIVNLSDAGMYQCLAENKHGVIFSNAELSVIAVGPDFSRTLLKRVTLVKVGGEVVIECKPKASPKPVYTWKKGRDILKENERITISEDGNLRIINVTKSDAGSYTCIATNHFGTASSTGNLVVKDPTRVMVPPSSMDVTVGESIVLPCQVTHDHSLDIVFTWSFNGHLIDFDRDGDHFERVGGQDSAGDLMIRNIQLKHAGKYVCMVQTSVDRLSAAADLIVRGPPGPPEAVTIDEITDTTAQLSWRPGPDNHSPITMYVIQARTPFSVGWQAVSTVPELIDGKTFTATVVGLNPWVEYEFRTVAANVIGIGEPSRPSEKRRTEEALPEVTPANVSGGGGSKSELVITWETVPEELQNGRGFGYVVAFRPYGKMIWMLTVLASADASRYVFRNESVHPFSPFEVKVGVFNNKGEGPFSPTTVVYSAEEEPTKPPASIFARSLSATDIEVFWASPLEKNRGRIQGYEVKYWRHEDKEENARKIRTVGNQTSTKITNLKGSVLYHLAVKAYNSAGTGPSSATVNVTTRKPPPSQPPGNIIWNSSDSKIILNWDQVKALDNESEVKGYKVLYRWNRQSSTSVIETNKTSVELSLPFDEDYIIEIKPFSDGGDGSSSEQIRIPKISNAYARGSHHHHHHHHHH
Test: ELISA, plate coated with CNTN4-10xHis, anti-human Fc-HRP
Method: An ELISA test was performed on A-01 prepared in Example 2.1. An ELISA plate was coated with 200 ng of antigens (human CNTN4-10xHis or mouse CNTN4-10xHis). For antibody binding, A-01 was serially diluted from a maximum of 1 μM to 0.0001 nM, thereby binding to the antigen. Anti-human Fc-HRP was used as a secondary antibody for antibody detection. Color was developed using ABTS, which is a color developing reagent, and the absorbance at 405 nm was measured.

- EC50: 0.011 nM
B1: anti-CNTN4 129 chimeric IgG4-S228P (antibody, V domains shown)
VH: AVTLDESEGGLQTPGGALSLVCKASGFTFSSFNMFWVRQAPGKGLEYVAEISGGGGSTWYAPAVKGRATISRDNGQSTVRLQLNNLRAEDTGTYYCAKSADTWSYGAATIDAWGHGTEVIVSS
VL: ALTQPSSVSANLGETVKITCSGSSGSYGWYQQKSPGSAPVTLIYDNTNRPSDIPSRFSGSGSGSTGTLTITGVRAEDEAVYYCGGYDGSTDVFGAGTTLTVL
notes: chicken-human chimeric IgG4-S228P made from S129, kappa light chain constant region (Kappa select); also called A-01; LAHA
